# Test results taken from a protein production outcome set (Wang et al. 2014).
# Experiment: label from the status in PepcDB records
row,Sequence,protein production
1,MHKFIVIFVTLLISISVQTLAADLEIEEIELRETPQKMYDRLNQSISFPISFKNREQFERAAQEQGYSPDEFEHILQLLARLNLEPNVKTKVEFQDANSLIELLTSIAQTPLEQATVAMLKGRYIGRTEQKYQEAIAFYNQALSHINDSVDLGSMLLKHTIHEHLGLLHLVIRQDVPALMHFHTYRDIAYKLRNDYLIAAAESKLGHYYNKNQQLTKSLQHYSEAVRLSNRSNYPSMKTHLQLQLAKVYRDLKQWDEALKNAHEAAAGFKKLGNDTYLSSCMTVIAMVYGEQGDWNRAIDYYLNAQQLDAKRGNYIAQGLNFHNLGQAYSHLNDNVNALKYLLMANKIFTDKQSHHYLVYNELLIGEIAQSKQDWTLMMSHAEHALALASNLALLDEQKSALTQIALSAEKMQDQAKVISTQKRIIELNNTSKNTAKDPAVAASVLAEQQLKLELNMVQGKLNDAIESAKETNKLLALSGVILTLLVIAIIALLNQRQKSRRQNESLLQLTLEEPFTHHKGYAALLRDLGPNTPHTRTTALALIEFRDHLMTDLNHGQYFANAITCQLASHISNSLFMPVYVIRQGLFAVRFTETVDPQQALTQLQQQLDKNAFTAIFNLGFINLPLLTKTEINIAPKLLFETVQMALAGARSLPSNTCHYVSLRALDFVPPTLFADPLFLHLEKGIERGLIRVETNAMKEDIVWPCWENNQNRHLLGNI,failed
2,MAEAIFALDVGTRKVAGLVLAQGKKGYHIQAAAVVEHQQRAMLDGQIHDIPQVALAIQDVKGQLEKKLHISLKEAAVAAAGRALKTWRASATSQLSPAQEIAPQAVLALEAAAVQEAEKLLLEASEQPLAYHCVGYSVVGYNLDGHPIGNLVGQRGQSMTAEVIATFLPRVVVDSLVTALERAGLAMHSLTLEPIAASAVAVPAAMRGLNLALVDIGAGTSDIAITGQGTISGYAMVPSAGDEITEALASALILDFNTAERVKRQLSTRENLTFTDVVGQRHTLAAAELMEIIKPAVTELARQVATQIILLNGKPPQAVLLIGGGSLTPGLAAALAGQLEISPERVAVRGREVLNGISGAKNLQGPQAITPIGIAITALKREGLGLARVIVNGRPVHFLAGQQMTVTQALLAAGIPARHLYGRPGRGLGVEVNGRLTFLRGQPGEPGKILVNEAPATLETVVKAGDHIIVTPGRDGADAWGTVGDLVPELAPKTITFNGRRITLEPEIIMNGNRVDYRTPVQDQARITYNPLDTVARVLEYLGEPLDGPVLLNGQQVRPEAPIKDGDNLVTGAGATGRNINITINGRPATLRVQAGEALFTDVFNYLDFPSSPPPGRKTLVMEVNGRPAEFTTPLAEGDAVTLRWDP,failed
3,MRLEKGMPLKRQIRLKTAIILPFVLTFLFMILAMAAVQTYRYEQTVKELSSKKLSYLTDSISQRLSDFLNRPFFANQMIAYNVGFHHLYQLNDVSRIEDFIRAAANPIGNNIQQIDVVGFGGVNGEYVGLRRDAPEQYSLMLKDARTDDKLVIYQTATKNDQLRTVIDNYDPRVRPWFAPVAQKPSPQWSSVYTNMDEKQEITLSALSPVFQDKRFIGVMVSDVKLNTFNQFLSELKQRMNADVYVMDKQHRLIAHSGEGSVVSWGTPLSPKGERLFASENRNPIIRSSAEQLDLQGLNVGTFTTYVNQQRYFNQASAFTDQYGLTWYISVSIAEGDLLGSLPENQKTSWAIGLLVSLVGLGLGLMALNRVANPIISTASAARQLANGDWTASMPKPGKIYETSLLVQAFIEMTNSLKASFKALRSQLVYDSLTQLLSREGLVEHCHQIPQLNGGLILIGIDKFRDINDSLGHHQADQLLVAIAQRLKVTFPEPALIARIGGDEFAIYLPDVNQQDDLKSVATDILKLFASPFSMPSDNIAVNVSIGIVYLEEPNMTVWLRNGSIALSNAKAEHTHISFYSPEMANASRKRMLMVTQIKLALDNQEFVPFYQPIVDLNSGEVLGAEALARWISPEFGLIPPMDFIPIAEESGLINAIGEQILRQACADTVRGIAENKWPSTFHMHVNLSVNQLSHPDFIAQLHSVLDESGLQPTNLTLEITESRIVDNDPVILHNMLELKKARIHIAIDDFGTGYSSLAYLHKLPFDCLKIDREFVSQLNAYNIENSVVAAIVNMTRGFKVELVAEGIETQEQVDLLNQLGCPRGQGFLFSKPMAYQDWPTDLVNMKQS,failed
4,MEKNSLFSQRIRLRHLHTFVAVAQQGTLGRAAETLNLSQPALSKTLNELEQLTGARLFERGRQGAQLTLPGEQFLTHAVRVLDAINTAGRSLHRKEGLNNDVVRVGALPTAALGILPSVIGQFHQQQKETTLQVATMSNPMILAGLKTGEIDIGIGRMSDPELMTGLNYELLFLESLKLVVRPNHPLLQENVTLSRVLEWPVVVSPEGTAPRQHSDALVQSQGCKIPSGCIETLSASLSRQLTVEYDYVWFVPSGAVKDDLRHATLVALPVPGHGAGEPIGILTRVDATFSSGCQLMINAIRKSMPF,failed
5,MISEIIEFLESNFFYLHPGYTPLNTVVFGIVLGIAVLIILRMFRWLKKDPGELLVPLLPFIFLGSGARALVDNGIYPLTHLLVTPGIYILVGLTTIATLIAAVKLEETRGWDYRKLIFATGSVLAAPNLISIRHIDPVPFLSVLGVFSVFSAAFYALSLRWEFLRGRMNLPVIYAHLFDASSTYVAVDWYGYIEQHVLPSALTGLTGTAMVMFPLKMAVILTALYAIDRYVESDMDSEALKLVIFILGLAPGLRNFLSLSMAV,failed
6,MAIESGYILTTPCKNEEKSLPELAESIINQTITPKLWLIINDNSTDNSAKILRDIETKYNWIRVVTSEGQKRDLSFHYAEVVRYGLSLSLEISSAEKIPVEYIGLIDADMILEKNFFEKMIDRFEQDPNLGVASGSTAYFEAENLVTEKGRDNLPIGGLRVWRRECLIETGGFPLSYSADSVSNVLALLHGWETKKFEDIIGIQTRRTGSAEGLWKGYITKGESDYYRDYHPVYVLSKFIKYSFTHPFYIGIAYMEGYINGIVKIKKKICIPEVRRYYRKKHLEIGRYYAGKFKFKLLEHHHHHH,failed
7,MANKQVFPTKGNLIATKKSNALAHMGYELMDRKRNILIREMMGLLDDVKLLRDEITQTYAEAYRALQLANMSLGVISAMAEAVPIDTGLHVSYRSVMGVEIPKLSYDKQEIKPTYGLERANSKLDYAYTCFQRVKEMSVVLAEVENNVYRLANAIRKSQKRANALKNIVIPEFEHNIKFITDALEEKEREEFSRQKVIKRNKDSQMQMERK,failed
8,MEKKKPFSVLLMGSDARPGETNGRADTIILATANKQQNAVEMVSIPRDTKVDYGNGDIGKINASYSNGGPSGTVSAVEKLMPGVPVDYFISINMEGFKDLVDAVGGITVYNDIDLTEVNSKFVKGNITLNGTDALQYVRIRHEDPRGDFGRQDRQRDVIIGIANKVISSSGVSNFESIMKAVGDNFQTNMTLTDITSMATNYSSVLKNVDSQELKGEGEMIYSESYGFDLYYFAPDETDLERVINMFKKSLDITELEHHHHHH,not failed
9,MTTATAGLAVELKQSTAQAHEKAEHSTFMSDLLKGRLGVAEFTRLQEQAWLFYTALEQAVDAVRASGFAESLLDPALNRAEVLARDLDKLNGSSEWRSRITASPAVIDYVNRLEEIRDNVDGPALVAHHYVRYLGDLSGGQVIARMMQRHYGVDPEALGFYHFEGIAKLKVYKDEYREKLNNLELSDEQREHLLKEATDAFVFNHQVFADLGKGL,not failed
10,KDADHIHHLIDQSLIAKGFQEILTNSLTKGAYNELLSKQEDAVPILNKLSEELAFMRPSLAFTGLETVAYNINRRQKNLKLFEWGKVYFKRGTKYNEYNRLSVFITGNQHAESWNTPSKTVDFFDMKAVVVQILEKLHIAVTQVQEIESNPLFSKGVIYKHAGKELVQFGYISQAALKATDVKQEVLFADFNADLLLELYSNKSKYKEIS,not failed
11,MVGGGSKHVGEGSKPRATKDDAYAYLRAVRAKFHNDSKKYDDFVAVMTNFKARRIDRDGCIKEVEQLLKGHRDLISGFNAFLPKCLEIKNYYFGAGEDLEVVYTAKRKLLARSVTKRSSSSSSSSSVYFLFRSCEII,failed
12,MSKVRVAGFSVSVDGFGAGPEQSLNDPLGKRGPEMFQWFFHTRTFRAMMGKDDGSTGIDEDYASRAMANFGAFILGRNMFGPIRGEWPDDAWKGWWGPNPPYHAPTYVLTHYPREPLVMEGGTTFHFVTGGIHQALDQAKAAAGDKDVKIGGGVATVRQYLQAGLIDELHFAVSPVVLGKGEAMFAGIDLPALDFRVTEHAASEKATHIVLAKLEHHHHHH,failed
13,MDRFLVKGAQGGLLRKQEEQEPTGEEPAVLGGDKESTRKRPRGEAPGNGGHSAGPSWRHIRAEGLDCSYTVLFGKAEADEIFQELEKEVEYFTGALARVQVFGKWHSVPRKQATYGDAGLTYTFSGLTLSPKPWIPVLERIRDHVSGVTGQTFNFVLINRYKDGCDHIGEHRDDERELAPGSPIASVSFGACRDFVFRHKDSRGKSPSRRVAVVRLPLAHGSLLMMNHPTNTHWYHSLPVRKKVLAPRVNLTFRKILLTKK,failed
14,MQTVRGWLTLPLALLIVLTGCMAVLSALVIEVQAGATSWIIGESHWSKAQQESVYWLERYLGSADPADLQAACRALEVPLGDRAARLAVDASPIDWAEVYAGLAAGRNAREDMPQMVRLYRYGQRLPYLGSAIALWKHTDGDILHLSLLADRAASAQATGTPDARALQSLRAELHLLDGRMRRDAAQFLTLLTRCARMLHDVMVTCSLATLLLVLSTCVLAIRRTRDYLMSHEGRFRTAFQHAALGMVKFDLSGRVLDANASLANILQYPPEALQACTLAEVMHPDDIVLDSRGLIDWPRLMQAGELRFLRSDGGVLWGRWSASLVEPGPQEPSLVLAVIEDVSQAHELADEVAYHARHDALTGLINRREIERRLQRLIDPPQSPQLCHALCFVDLDHFKLVNDTFGHAVGDKFLCHFADVITMQLRPGDWLGRLGGDEFAILLANTDLAHAHTLLERMHGVLGQPWSHQGGRPLTPSCSFGVVEIRQGADDVNLLMTAADLACHAAKEEGRNRIRSFGETDLAMARRRHDGGWISAVQQAIAEDRLLLYAQKIQVLSDPGRVQYEVLVRMRTRDGRVLSPGEFLPAVERYGLGRMVDAHVLETLCAQLSANPAHVASLDLCHVNLSAQSIAQRDFLDFVCALFERYPALVAKLCLEITETAVIGDLEHAQRFVQSVRARGCHVALDDFGSGLASFGYLKQFTVDVLKIDCGFVRNYAHDAVDRATVHSIAQVGLALGIEVVAEGVESEADIAGLREAGVGQVQGFSLHRPCPLDDLLHVSLPSLAAS,failed
15,MSLNYEESNLIVFGVGFDGTTSNRPGARFASSSMRKEFYGLETYSPFLDLDLEDYNICDYGDLEISVGSTEQVLKEIYQETYKIVRDSKVPFMIGGEHLVTLPAFKAVHEKYNDIYVIHFDAHTDLREEYNNSKNSHATVIKRIWDIVGDNKIFQFGIRSGTKEEFKFATEEKHTYMEIGGIDTFENIVNMLNGKNIYLTIDLDVLDASVFPGTGTPEPGGVNYREFQEIFKIIKNSNINIVGCDIVELSPDYDTTGVSTVIACKILRELCLIISDKIKEGHHHHHH,not failed
16,MEMTKVTGKFDVKLTPENAYATGVGGVNLGRMALDKTFYGELEARSQGEMLSAMTAVKGSAGYVAIEQVVGKLCGRQGSFVLQHFGIMTDGQNRLHLEVVPHSGAGELTGLYGTMAISIENGQHFYEFSFCFEPASEVEG,not failed
17,MNLGILLGFLIYLVLLAYIGWWANRYTKTEEQYFIGGRKVHVLAATLSDKASDFSGWLMLGYPGTAFKTGLGAFWAAIGCLFGTLADYLLIGPRLRIYAGKFRSITLPDYLEARLKDNTKLIRILSAAIILIFMTAYVAAQFAAGGKTFSEAFGVSVTTGILITVIILTAYVITGGFFAVVWTDVVQAMFMLLTLIIMPILALAEIGGLDKATQIIGSVNPAKLHPFGGATGLAAIVFAIGYASWIVGYLGQPHIVTRYMSVEDPRKLRRPGIFISGIWTTIVLWGAFFAGFLGFALAINGSIKIDDPEKIVPAMAVHFLPSWIAGFVIAGIISAVMSTADSQLLVASSAIARDIYHKVLGQELGKKQMVNISRVVVAIVSLIAMWFAISGPKVIYQMVATAWGGLAVGFGPILTLSLWWKRVTKEAGIIGMGYGLISEVLLEAKIYGWAFNPNAPGFFGTLGKWFNGVPVFFINFFITLLVIIIVSLLTKPPEDVVKLHKELFKKVPIEKSEKIKVARAKSQAENVFDFAIASGLL,failed
